Earlier results on 5 substances are cited in PMC7555924.

In general, pKa refers to the pH at which an ionisable group is half protonated.

In one data set the target is Cys1 (UniProt position 1, -----CGVPAI). As to conditions: fully reduced (all disulfides cleaved), molten globule-like conformation.
The target in another data set is Cys47 (UniProt position 48, SLKASCLYGQL). Conditions: not stated (the Cys47 thiolate is described as ion-paired with Lys54).
For a further data set, the target named is Cys94 (UniProt position 94, GSRNLCNIPCS). Conditions: fully reduced (all disulfides cleaved), molten globule-like conformation.
The next data set deals with Cys95 (UniProt position 121, SKYPNCAYKTT). As to conditions: fully reduced (all disulfides cleaved), molten globule-like conformation.
The target of the next data set is Cys75 (UniProt position 99, FGDELCKVASL). As to conditions: fully reduced (all disulfides cleaved), molten globule-like conformation.

As for “Chymotrypsinogen A (reduced, rChTg) (Bos taurus)”, the pKa in the data set with Cys1 was 8.1.
In the case of “Glutathione S-transferase P1-1 (GSTP1-1) (Homo sapiens)”, the pKa in the data set with Cys47 is 3.5.
As for “Lysozyme C (reduced, rLyz) (Gallus gallus)”, in the data set with Cys94, the pKa is on record as 6.6.
Regarding “Ribonuclease A (reduced, rRNase) (Bos taurus)”, the pKa in the data set with Cys95 is reported as 7.9.
Regarding “Serum albumin (reduced, rBSA) (Bos taurus)”, the pKa with Cys75 was 6.6.
